Experimental data from the nanobody polyreactivity screen of Harvey et al. (2022).

Experiment: yeast display, Sf9 membrane polyspecificity reagent, FACS + sequencing; frameworks hold sequencing errors
Outline: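 A synthetic nanobody library was expressed on Saccharomyces cerevisiae BJ5465 by galactose induction for 36–48 hours. The library was stained for 1 hour at 4 °C with 10% biotinylated, detergent-solubilized Sf9 membrane reagent and enriched with streptavidin microbeads before FACS. Low and high (top ~1%) gates were set on anti-HA fluorescence for expression and streptavidin fluorescence for reagent binding, and each polyreactivity label reflects the gate of origin.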

Sequence | polyreactivity (PSR sort gate)
QVQLVESGGGLVQAGGSLRLSCAASGIFDDNAMGWYRQAPGKEREFVAAITISDGTTYYADSVKGRFTISRDNAKNTVDLQMNSLKPEDTAVYYCAADATYFFVYPSVDWQPDIMGYWGQGTQVTVSS | low polyreactivity
QVQLVESGGGLVQAGGSRRLSCAASGFTFLAYALGWYRQAPGKERELVAAISWDGGSTYYADSVKGRFTISRDNAKNTVYLQMNSLKPEDTAVYYCNRRSRRQGGYWGQGTQVTVSS | high polyreactivity
QVQLVESGGGLVQAGGSLRLSCAASGRIIYSNAMGWYRQAHGKERELVASISPNTGTTYYADSVKGRFTISLDNAKNTVYLQMNSLKPEDTAVYYCAARGGYYQDGLVTGEAEYGYWGQGTQVTVSS | low polyreactivity
QVQLQESGGGLVQAGGSLRLSCAASGNISVTGFMGWYRQAPGKERELVASIGIGGTTYYADSVKGRFSISRDNAKNTVYLQINSLKPVDTAVYYCAARYLYYAYSYWGQGTQVTVRS | low polyreactivity
QVQLVESGGGLVQAGGSLRLSCAASGINFYYNAMGWYRQAPGKERELVATISWSDTSTYYADSVKGRFTISRDNAKNTVFLQMNSLKPEDTAGYYCATDGRETWLPEYYWGQGTQVTVSS | low polyreactivity
QVQLVESGGGLVQAGGSLRLSCAASGNIFGQNAMGWYRQAPGKERELVAAISSNGGRTYYADSVKGRFTISRDNAKNTVYLQMNSLKPEDTAVYYCAAEAVYAYEWYYYWGQGTQVTVSS | high polyreactivity
QVQLVESGGGLVQAGGSLRLRCAASGSIFGPNALGWYRQAAGKERELVAAISSGGSTNYADSVKGRFTISRDNAKNTVYLQMNSLKPEDTAVYYCAKDNYLDPPYFYRFAGYDYRGQGTQVTVSS | low polyreactivity
QVQLVESGGGLVQAGGSLRISCAASESIFPVYAMGWYRQAPGKERELVATITDGGGDTYYADSLKGRFTISRDNAKNTVYLQMNSLKPEDTAVYYCAARSMPEWSAYWYDYWGQGTQVTVSS | low polyreactivity
QVQLVESWGGLVQAGGSLRLSCAASGITFSNYAMGWYRQAPGKERELVAAISKRGGSTYYADSVKGRFTISRDTAKYTVYLQMNSLKPEDTAVYYCAAAGVRVYVRSVLDYWGQGTQVTVSS | high polyreactivity
QVQLVESGGGLVQAGGSLRLSSPASGFTFYYKGMGWYRQAPGKERELVATITSGGSTYYADSVKGRFTISSDNAKNTVYLQMNSLKPEDTAVYYCNRRISWRYVPTYDYWGQGTQVTVSS | high polyreactivity
QVQLVESVGGLVQAGGSLRLSCAASGNTFSLYAMGWYSQAPGKERELVAAITWITGSTDYADSVKGRFTISRDNAKNTVYLQMNSLKPEDTAVYYCAADGDFSWFYSYETGWIEYDYCGQGTQVTVSS | low polyreactivity
QVQLVESGGGLVQAGGSLRLSCAASGRIFARKAMGRYRQAPGKEREWVATIRVGGGSTYYADSVKGRFTISRDNAKNTVYLQMNSLKPEDTAVYYFAVRQLYSYPGDRRGYDWGQGTQVTVSS | low polyreactivity
QVQLVESGGGLVQAGGSLRLSCAASGRIFRYYAMGWYRQAPGKERELVAAIRIRGGSTSYADSVKGRFTISRDNAKNTVYLQMNSLKPEDTAVYYCNKRDKVTYSYDYWGQGTQVTVSS | high polyreactivity
QVQLVESGGGLVQAGGSLRLSCAASGSTFSNNTMGWYRQAPGKETELVATIDFNGGSTYYADSVKGRFTISRDNAKNTVYLQMNSLKPEDTAGYYCAAAEYLYTLPYGYWGQGTQVTVSS | low polyreactivity
QVQLVESGGGLVQAGGSLRLSCAASGFTFDYYTMGWYRQAPGKEREFVAAITWNGGTTNYADSVKGRFTISRDNAKYTVYLQMNSLKPEDTAVYYCAATAYWYFSNDSGRSYDYWGQGTQVTVSS | low polyreactivity
QVQLVESGGGLVQAGGSLRLSSAASGSTFRYNTMGWYRQAPGKERELVAAINISSSSTYYADSVKGRFTISRDNAKNTVYFQINSLKPEDTAVYYCAKRDYVPIATDENDDYWGQGTQVTVSS | low polyreactivity
QVQLVESGGGLVQAGGSLRLSRAASGFIFSGNAMGWYRKAPGKERELVAVITTSGGSTYYADSVKGRFTISRDNAKNTVYLQMISMKPEDTAVYYCNKPGHRSGPPYDYWGQGTQVSVSS | high polyreactivity
QVQLVESGGGLVQAGGSLRLSCAASGRTFYAYAMGWYRQAPGKERELVAAINTSGGRTYYADSVKGRFTISRDNAKNTVYLLMNSLKPEDTAVYYCAADVFTFYPRRYDYWGQGTQVTVSS | low polyreactivity
QVQLVESGGGLVQAGGSLRLSCAASGSIFGINAMGWYRQAPGKERELVAAITWSGGSTFYADSVKGRFTISRDNAKNTVYLQMTRLKPEDTAVYYCAADSGREPKGPSRLTYWGQGTQVTVSS | high polyreactivity
QVQLVESGGGLVQAGGSLRLSCAASGSTFGTYAMGWYRQAPGKERELVAAISSGGSTYYADSVKGRFTISRDNAKNTVYLQMNSLKPEDTAVYYCAAGYYWYVWGFGYWGQGTQVSVSS | low polyreactivity
QVQLVESGGGLVQAGGSLRLSCAASGSTFQSYAMGWYRQAPGKERELVASITRTGGTTYYADSVKGRFTISRDNAKNTVYLQMNSLKPEDTAVYYCNADLGQPISLDDFDYWGQGTQVTVSS | low polyreactivity
QLQLVESGGGLVQAGGSLRLSCAASGSTFTWKAMGWYRQAPGKERELVAAITSGCRTYYADSVKGRFTISRDNAKNTVYIEMNSLKPEDTAVYYCAAKVRHYYSASNYYYWGQGTQVTVSS | high polyreactivity

Sequence | polyreactivity (PSR sort gate)
QVQLVESGGAIVQAGGSHRLRCAASGSILGRYAMAWYRQAPGKERELVAAISRRGGSTTYADSVKGRFTISRDNAKNTVYFQMNSLKPEDTALYYCNTVSSWGRNYQDEYDYWGQGTQVSVSS | high polyreactivity
QVQLVESGGGLVQAGGSLRLSCAASGRIFPTYAMGWYRQAPGKERELFAGITSGGRTNYADSVKGRFTISRDNAKNTVYLQMNSLKPEDTAVYYCAKRVWPRDQYGKRNPRMDYWGQGTQVTVSS | high polyreactivity
QVQLVESGGGLVQAGGSLRLSCAASGRIFYANDMGWYRQAPWKERELVAAITNTVSTTYADSVKGRFTISRDNAKNTVYLQMNSLKPEDTAVYYCNGDDPYVPKADMGYWGQGTQVTVSS | low polyreactivity
QVQLVESGGGLVQAGGSLRLSCASSGNIFRYYVMGWYRKAPGKEREFVAAITSSGGSTYYADSVKGRFTISRDNAKNTVYFQINSLKPDDSEVYYCAKDYWDPGWAEYDYWGQCTQVTVSS | low polyreactivity
QVQLVESGGGLVQAGGSLRLTCAASGNTFFFNTMGWYRQAPGKERELVAVISSSGGTYYADSVKGRFTISRDNAKNTVYLQMNSLKQEDTAVYYCNADWHTHGYPTGKTGFKYYYWGQGTQVTVSS | low polyreactivity
QVQLVESGGGLVQAGGSLRLSCAASGFIFSNYAMGWYRQAPGKERELVAAISRSGGSTYYADSVKGRFTISRDNAKNTVYLQMNSLKPEDTAVYYCAARHAPILGDHGMKYWGQGTQVTVSS | high polyreactivity
QVQLVESGGGLVQAGGSLRLSCAASGFTLYRYAMVWYRQAPGKERELVAAISRGSSTNYADSVKGRFTISRDNAKNTVYLQMNSLKPEDTAVYYCAARIVTLGSSRARSFTEYYWGQGTQVTVSS | high polyreactivity
QVQLVESGGGLVQAGGSLRLSCAASGNTFLRNTMGWYRQAPGTERELVAAISWGGGTTYYADSVKGRFTISRDNAKNTVYLQMNILKPEDTAVYYCNARYYSRRGNSWGQGTQVTVSS | high polyreactivity
QVQLVESGGGLVQAGGSLRLSCAASGSTFGHNVMGWYRQAPGKERELVAVISWRGGSTSYADSVKGRFTISRDNAKNTVYLQMNSLKPEDTAVYYCAKPALRYSSRYDSWGQGTQVTVSS | high polyreactivity
RVQLVESGGGLFHAGGSLRLSCAASGRTFPTYDMGWYRQAPGKERELVAAINWSGGSTYYADSVKGRFTISRDNAKNTVYLQINSLKPEDTAVYYCNAELLRPSTLGVYLARNYWGQGSQVTVSS | low polyreactivity
QVQLVESGVGLVQAGGSLRLSCASSGFIFNYNTMGWYRQAPGKETELVAAISSSGGSTYYADSVKGRFTISRDNAKNTVYLQMNSLKPEDTAVYYCGAGANAQRVPNGDYWGQGTQVTVSS | low polyreactivity
QVQLVESGGGLVQAGGSLRLSCAASGFTFTLNAMGWYRQAPGKASEFVAAISTGGSTYYADSVKGRFTISRHNAKNTVYLQMNSRKPEDTAVYYCAAYRYSYHGSYQETYYYWGQGTQVTVSS | high polyreactivity
QVQLVESGAGLVQAGGSLRISGAASGRIFGKYAMGWYRQPPGKEREFVARISFSGGTTYYADSVKGRFTISRDNAKNTVYLQMNSLKPEDTAVYYCAARRQSGYGRQLDYWGQGTQVTVSS | high polyreactivity
KVQLVESGGGLVQAGGSLRLSCAPSGRTFRSNGMGWYIQAPGKERELVATISEGGGSTYYADSVKGRFTISRDNAKNTVYLEMISLKPEDSAVYFCAADKWYVLHYLDMNYWGQGTQVTVSS | high polyreactivity
QVQLVESRGGLVQAGGSLRLSCAASGRIFGLYAMGWYRQAPGKERELVAAYADSVKGRFTISRDNAKNTVYLKMNCLKPEDTAVYYCAKGPLYAGYSIDLRDFNYWGQGTQVNVSS | low polyreactivity
QVQLVESGGGLVQAGGSLRLSCAASGIISGDYALGWYRQAPGKERELVARITSGDSTNYADSVKGRFTISRDNAKNTVYLQMNSLKPEDTAVYYCAADRVWAYWTYGYWGQGTQVTVSS | low polyreactivity
QVQLVESGGGLVQAGGSLRLSCAASGFTFRDYAMGWYRQAPGKERELVATITWRVGSTFYADSVKGRFTISRDNAKNTVYLQMNSLKPEDTAVYYCADEDSNVVAYDYWGQGTQVTVSS | low polyreactivity
QVQLVESGGGLVQAGGSLRLSCAASGSTFNTYDMGWYRQAPGKERELVAAISFSDASTYYADSVKGRFTISRDNAKYTVYLQMNSLKPEDTAVYYCAADTRRITTVTTGEYGYWGQGTQVTVSS | low polyreactivity
QVQLVESGGGLVQAGGSLRLTCAASGSTFHSNAMGWYREAPGKERELVAAISQGGGRTYYADSVKGRFTISRDNAKNTVYLQMNSLKPEDTAVYYCNRRTRGLIDGGMDYWGQGTQVTLSS | low polyreactivity
QVQLVESGGGLVQAGGSLRLSCAASGSTFPYYAMGWYRQAPGKERELVAAITSGGSTNYADSVKGRFTISRDNAKNTVYLQMNSLKPEDTAVYYCNADTTYLSDYVTFDYWGQGTQVTVSS | low polyreactivity
QVQLEESGGGLVQAGGSLRLSCAASGFIFSWYAMGWYRQAPGKERELVARISSSGGNTYYADSVKGRFTISRDNAKNTVYLQMNSLKPEDTAVYYCAATRYSLSGYGYWGQGTQVTVSS | high polyreactivity
